B1: humanized antibody h12F5 (antibody, human IgG1, kappa, V domains shown)
VH: EVQLVQSGAEVKKPGASVKVSCKASGYTFTSYYMYWVRQAPGQGLEWIGEINPSNGGTNFNEKFKSRVTLTVDKSISTAYMELSRLRSDDTAVYYCTRTLYYGNDWYFDVWGQGTTVTVSS
VL: EIVLTQSPDFQSVTPKEKVTITCSASSSVNYMHWYQQKPDQSPKRLIYDTSKLASGVPSRFSGSGSGTDYTLTINSLEAEDAATYYCQQWSSNPVTFGQGTKLEIKR
B2: humanized antibody h12G4 (antibody, human IgG1, kappa, V domains shown)
VH: EVQLVQSGAEVKKPGASVKVSCKASGYTFTDYNMDWVRQAPGKGLEWIGDINPNNGGTLYNQKFRGRVTLTVDKSISTAYMELSRLRSDDTAVYYCARSEVFYGNYADYWGQGTTVTVSS
VL: DIVLTQTPLSLSVTPGQPASISCKASQSVDYDGDSYMNWYLQKPGQPPQLLIYAASTLHSGVPDRFSGSGSGTDFTLKISRVEAEDVGVYYCQQSKEDPRTFGQGTKLEIKR

Molecular target: Cynomolgus monkey B7H6 protein overexpressed in CHO-K1 cells (Cynomolgus monkey)
Assay: flow cytometry on CHO-K1-cyno B7H6 cells, Alexa-647 mouse anti-human IgG-Fc secondary antibody, binding ratio (%)

Chain of Cynomolgus monkey B7H6 protein overexpressed in CHO-K1 cells (Cynomolgus monkey) (chain, as listed by the source limits assumed, form in doubt): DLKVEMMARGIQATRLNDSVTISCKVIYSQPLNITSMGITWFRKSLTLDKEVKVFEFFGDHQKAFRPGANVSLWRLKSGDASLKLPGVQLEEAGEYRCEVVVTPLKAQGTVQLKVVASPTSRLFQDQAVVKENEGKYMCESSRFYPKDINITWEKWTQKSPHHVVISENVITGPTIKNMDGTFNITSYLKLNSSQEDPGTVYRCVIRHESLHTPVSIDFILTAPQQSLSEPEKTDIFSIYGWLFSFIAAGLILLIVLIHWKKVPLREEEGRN

Row | Binder | EC50 (read off the curve) [µg/mL]
1 | B1 | 0.2
2 | B2 | 0.7

— patent US20240190968A1
